The nature of this data set: protein stability index of a GFP-peptide fusion (GPS, HEK-293T) (PSI 1-6); higher = more stable.
[1] abbreviates: treatment: DMSO, c terminus: a fixed tail appended.
Where [2] appears, read: treatment: MLN4924 1 uM, 8 h, c terminus: a fixed tail appended.
Setting [3] is: treatment: DMSO, c terminus: native.
Setting [4] is: treatment: MLN4924 1 uM, 8 h, c terminus: native.

± gives the standard deviation.
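Further: 24-mer peptide tiles fused after GFP, lentivirally expressed, FACS-sorted into six equal bins by GFP/DsRed ratio, decoded by Illumina sequencing, PSI is the read-weighted mean bin number.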

Consider MQPTLLLSLLGAVGLAAVNSMPVD [CHGB], for which the protein stability index reads like this: under setting [1], 2.85 ± 0.68; under setting [2], 2.94 ± 0.69.
For MSAALFSLDGPARGAPWPAEPAPF [CEBPD], in that order: 2.95 ± 0.14 and 3.21 ± 0.18.
In the same order, the values of MSLRLQSSSASYGGGFGGGSCQLG [KRT13] are 2.54 ± 0.11 and 2.49 ± 0.11.
Regarding MTLAYDNGINLFDTAEVYAAGKAE [KCNAB2], the protein stability index amounted to 3.54 ± 0.29 under setting [1] and 3.8 ± 0.34 under setting [2].
In the same order, the values of MTTSIRQFTSSSSIKGSSGLGGGS [KRT17] are 3.58 ± 0.11 and 3.39 ± 0.43.
In the same order, the values of MWLLVSVILISRISSVGGEAMFCD [CFHR2] are 3.35 ± 0.25 and 3.08 ± 0.52.
In turn, NAGSYIPSYTSWYPSAHQEAMQQP [DLX1] registered a protein stability index under setting [1] of 2.76 ± 0.16 and a protein stability index under setting [2] of 2.84 ± 0.32.
In the same order, the values of NAKTEQGPTGVTMTSNPITWGQIK [CDK11A] are 4.19 ± 0.16 and 4.12 ± 0.24.
With NALLSKRLLALTSSDLGCQPSRT [TMEM192], the protein stability index by setting is: under setting [3], 2.52 ± 0.72; under setting [4], 2.61 ± 0.3.
Consider NATWLVNSAAHLFGYRPYDKNISP [SCD], for which the protein stability index is 2.4 ± 0.19 under setting [1] and 2.34 ± 0.41 under setting [2].
In the same order, the values of NCLGIRAFADTHSCRELLRIADKF [KLHL20] are 2.3 ± 0.36 and 2.2 ± 0.18.
As for NDKMAEYTNSAGVPSLNAALMHTL [GOSR1], the protein stability index is 3.44 ± 0.32 under setting [1] and 3.42 ± 0.23 under setting [2].
In the same order, the values of NDLWPTMENLLQATKSHVDKVIMK [DYNC2LI1] are 3.23 ± 0.25 and 3.31 ± 0.32.
For the sequence NDNSPSFATPEREMRISESAASGA [PCDHGC5], the protein stability index is, setting by setting: under setting [1], 5.21 ± 0.17; under setting [2], 5.22 ± 0.089.
Turning to NESWIKSHFSRLSEEKLALDNNAS [C10orf62], the protein stability index under setting [1] amounted to 4.11 ± 0.14 and the protein stability index under setting [2] was 4.29 ± 0.24.
NGTYAGPAPAFQPFFFTGAFPFNM [ANKRD40] showed a protein stability index under setting [1] of 2.32 ± 1.2 and a protein stability index under setting [2] of 2.51 ± 0.5.
For NILFYVVGLRNTLTRIRKWIEHSK [GLT8D2], the protein stability index reads like this: under setting [1], 2.59 ± 0.18; under setting [2], 2.76 ± 0.46.
Turning to NILVTSGGTVKLADFGLARIYSYQ [CDK4], the protein stability index runs as follows: under setting [1], 2.45 ± 0.81; under setting [2], 2.13 ± 0.37.
For NIRQKVKELVEFAQDDDRLREERK [CLINT1], in that order: 4.55 ± 0.17 and 5.01 ± 0.19.
With NKTGVSPYSKTLVLQTSEGKALQQ [TRIM9], the protein stability index by setting is: under setting [1], 4.19 ± 0.14; under setting [2], 4.22 ± 0.073.
For NLPFWVKEKANSLKNEIQEVEELD [SPATS1], the protein stability index stood at 4.7 ± 0.32 under setting [1] and 4.82 ± 0.083 under setting [2].
For NMEKYNFLGISIVGQSNERGDGGI [DVL3], in that order: 3.18 ± 0.28 and 3.16 ± 0.82.
For NQEDAIHFHRTLKEACDQHGPDLY [CPOX], in that order: 4.33 ± 0.21 and 4.47 ± 0.15.
In the same order, the values of NQMDKARRHPQGAWKELDRNYLNY [CHGB] are 2.77 ± 0.32 and 2.84 ± 0.19.
NSDPEVVNVDNLLAAAVVQEHSNS [C18orf25]: the protein stability index is, setting by setting: under setting [1], 5.19 ± 0.35; under setting [2], 5.33 ± 0.2.
In the same order, the values of NSLQSYQLSPNKHFSLRVQSRANG [PCDHGA10] are 3.41 ± 0.077 and 3.64 ± 0.42.
In the same order, the values of NSSNSDIVHVEKEEVPEGMEEAAV [BCL2L13] are 5.6 ± 0.14 and 5.61 ± 0.28.
In the same order, the values of NTLVTKTMEDTLMTVKQYEAARLE [ARFIP2] are 4.19 ± 0.3 and 4.55 ± 0.23.
For NTRNYEGQTPLAVSISISGSSRPC [ASB7], the protein stability index under setting [1] turned out to be 3.23 ± 0.2 and the protein stability index under setting [2] came to 3.5 ± 0.27.
In the same order, the values of NVAATGISQYEDDLPPPPADPVLD [APBB1IP] are 5.36 ± 0.18 and 5.45 ± 0.19.
In the same order, the values of NVFKELQIMQGLEHPFLVNLWYSF [STK32A] are 2.74 ± 0.55 and 2.49 ± 0.53.
For NVKSEKVYTRHGVPISVTGIAQVK [FLOT1], in that order: 3.52 ± 0.13 and 3.65 ± 0.2.
For the sequence PAAPFDKKCGRENWTVAFAPDGSY [WSB1], the protein stability index amounted to 2.63 ± 0.33 under setting [1] and 2.86 ± 0.13 under setting [2].
On to PALSQLVNLYLGRSHFLWKEPATM [TCF25], for which the protein stability index reads like this: under setting [1], 3.25 ± 0.75; under setting [2], 3.02 ± 0.9.
For PAPNKKRKSSKLIMELTGGGQESS [MYOZ1], in that order: 4.82 ± 0.19 and 4.73 ± 0.16.
In the same order, the values of PCFKWYTSPWSECTKTCGVGVRMR [ADAMTSL2] are 2.07 ± 0.17 and 2.33 ± 0.32.
In the same order, the values of PDEEPMHYGNIMYDRRVIRGNTYA [RSPH3] are 3.5 ± 0.27 and 3.41 ± 0.33.
On to PEGKRVPKRLRCWEEEEDHEKERP [FANCE], for which the protein stability index worked out at 5.21 ± 0.25 under setting [1] and 5.26 ± 0.27 under setting [2].
For the sequence PEMYILKGGYKEFFPQHPNFCEPQ [CDC25B], the protein stability index by setting is: under setting [1], 2.6 ± 0.46; under setting [2], 2.84 ± 0.36.
PEPRSEVVPARLKRASAPTFDNDY [RIPK4]: the protein stability index by setting is: under setting [1], 4.86 ± 0.47; under setting [2], 4.63 ± 0.36.
For PFDQSGLGAEESLGLLDDYLEVAK [ATF4], in that order: 4.28 ± 0.28 and 4.62 ± 0.24.
In the case of PFEPQALGLSPSWRLTGFSGMKG [SEPHS2], the protein stability index came to 2.51 ± 0.53 under setting [3] and 2.64 ± 0.25 under setting [4].
PFRGDEGIFEESFIEERRQGLEQF [SNX12]: the protein stability index turned out to be 4.518 ± 0.041 under setting [1] and 4.42 ± 0.18 under setting [2].
For PFWEVLVRSTETVERDNMEEDNVE [HDAC6], in that order: 5.27 ± 0.086 and 5.27 ± 0.13.
For PGAGLRRPTYTPPSIMPQKHWVYV [ZBTB22], in that order: 2.26 ± 0.051 and 2.04 ± 0.27.
With PGKKKIRWDPVRRRFIQSCPIIRI [KLHDC10], the protein stability index by setting is: under setting [1], 2.01 ± 0.29; under setting [2], 2.1 ± 0.12.
In the same order, the values of PGQGGPASTPAQTAAGGQGGPGGP [NR2F2] are 5.25 ± 0.21 and 5.33 ± 0.37.
Take PGRLTEALCLEVRPTYFEMKNEKL [RNF180]: the protein stability index under setting [1] was 4.9 ± 0.21 and the protein stability index under setting [2] stood at 4.9 ± 0.15.
For PGSGSGPGPGSGPGSGPGHGSGSH [SPAG8], in that order: 5 ± 0.17 and 4.93 ± 0.18.
In the same order, the values of PGSTSPLETSGNPNGRYGSGYLLA [SLC6A17] are 3.44 ± 0.19 and 3.72 ± 0.33.
In the same order, the values of PGVLKVLWLTASQPCSIVDVEFLP [LPCAT4] are 3.08 ± 0.27 and 2.87 ± 0.99.
In the case of PISQEKIESERALISQCGKPVVNV [DUSP5], the protein stability index turned out to be 4.04 ± 0.55 under setting [1] and 3.91 ± 0.23 under setting [2].
With PKNPALEAFLAQFSQLEDKFPGQS [TOR1AIP2], the protein stability index under setting [1] stood at 3.43 ± 0.1 and the protein stability index under setting [2] was 3.64 ± 0.15.
As for PLAMNYLDRFLSLEPVKKSRLQLL [CCND1], the protein stability index under setting [1] was found to be 2.23 ± 0.12 and the protein stability index under setting [2] stood at 2.27 ± 0.14.
On to PLLSGVAQEVSPCGPPSLGAVLAL [MFSD9], for which the protein stability index reads like this: under setting [1], 2.4 ± 0.35; under setting [2], 2.42 ± 0.18.
For PLNRFSSVPLDPMERPMSQADLEL [CBY2], in that order: 4.47 ± 0.18 and 4.53 ± 0.28.
For PLPESRREIEELLAEAKYYLVQGL [KCTD10], in that order: 2.56 ± 0.2 and 2.77 ± 0.4.
For PMMKAAMYSVEITVEKDKVTGETR [PALM], in that order: 4.16 ± 0.33 and 4.29 ± 0.14.
Turning to PMVRKRSVSNSTQTSSSSSQSETS [DLC1], the protein stability index by setting is: under setting [1], 5.26 ± 0.21; under setting [2], 5.3 ± 0.33.
For PNLNETSIVSGGYGGSGDGLIPTG [ARFIP2], in that order: 4.18 ± 0.13 and 4.45 ± 0.095.
In the same order, the values of PNRQLWIELAPLSMPRINHGVLSA [GAN] are 2.17 ± 0.47 and 2.19 ± 0.13.
For PPETKHQALSGTPKKGPAPSLSPG [TSPAN10], in that order: 5.31 ± 0.31 and 5.31 ± 0.13.
With PPWKEAFRQRCLERMRNSRDRLLN [RPAIN], the protein stability index is, setting by setting: under setting [1], 2.66 ± 0.18; under setting [2], 2.75 ± 0.33.
Regarding PQARMREENMERIGEEVRQLMEKL [BEX1], the protein stability index reads like this: under setting [1], 4.51 ± 0.33; under setting [2], 4.52 ± 0.23.
On to PQLASLCLDTIDKSTMDAISAEGF [BTBD1], for which the protein stability index worked out at 3.98 ± 0.16 under setting [1] and 3.99 ± 0.057 under setting [2].
Consider PSGEMVKSTTSLTSSSTSGSSDKV [MLH1], for which the protein stability index was determined as 5.47 ± 0.39 under setting [1] and 5.59 ± 0.17 under setting [2].
For PSMVSGGYVANSSNCISGVCSVRG [KRT71], in that order: 3.35 ± 0.082 and 3.4 ± 0.23.
For PSPASEQTVTVEEAAGGESALAPS [MAP2], in that order: 5.45 ± 0.53 and 5.5 ± 0.15.
For PSVADNLLASSDAALSASMASLLE [SERTAD1], in that order: 4.51 ± 0.18 and 4.39 ± 0.15.
With PTPMPHNKGTRFSEAWEYFHLAPA [ZBED2], the protein stability index reads like this: under setting [1], 2.65 ± 0.2; under setting [2], 2.71 ± 0.33.
For PTWIIDPIDGTTNFVHRFPFVAVS [IMPA1], in that order: 2.36 ± 0.22 and 2.25 ± 0.25.
For PVPVIVSNFNYFYHRETEGEEQAQ [KCNA1], in that order: 3.62 ± 0.25 and 3.81 ± 0.4.

The record behind these values is the supplement of paper PMC10567573.
